Laboratory results taken from a protein production outcome set (Wang et al. 2014).

Assay: label from the status in PepcDB records
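Also: failed if final PepcDB status was selected cloned or expressed and not failed if soluble or beyond.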

| Sequence | protein production |
| --- | --- |
| MAPQPVIRSKQAEKTINGNQTQVVCTEFSNYIFIVLTQYGKIGTLVSITPDTRSGDISVPMYTSKVLLGKDEPLTHVYAKNVATFVSQESGNRPILLGLSLKDNSAETMKTVKDMIKSCQVW | failed |
| MKKISILFIFSLILGLFVSEVSAAGPRLKKRPKHVVLVAFDGLSAVAIRNHPMPNFNRLMKEGASTLNNRSILPSSSAPNWASMFTGVGPELHGYTTWGSKTPEIPPFITNQYGRFPGLYGLLRDTHPKAELGYIYEWDGMKYLVDSLAINHFVHAPQTKDHPKGATQFAVNYLKEKKPMYCAVIFEYPDHTGHTYKWESKEYYEKLDELDGYLGEIVAAIEEAGMMDETVIILTADHGGIGTNHGGKTLNEMETPLVFYGKGVKKNYKITESTMVIDVPATEAWLLGVEPHEAWLGNPVTTAFFTK | failed |
| TNNGKQFIHNDTMEGGKLVCREIYAMNDAASGILNPVKMYKYSYDTDQQKTVKSTYAWNIFKNTWETESRTVISRYETETSVEYSVWNKEKGSFDLSKKYIYITDNNNQLIAQYAYKMNSRTNQWILEKDALTPIYENIYATTR | not failed |
| MNSFWLSLAPVLWLTIIAIPVGILFNAAIVFGLYSIILLGIVIYHIHTLYCLEQWLHHSDLSYATVPDRSGLWGVVFARLARFVRRHDKERLGLNTSLERLQRATSALPEGIVILGDKDQIEWCNSAAERHLGLNLEMDAGQHITRMVRQVRFVAYLDMGDFSKPFLLNQSRLRDVLLSIQIVPYGDREKLLISQDVTRFEKIEIMRRDFVANVSHELRTPLTVIGGFLETLLEENKISGEMEKNALRLMSDQAIRMRRLVEDLLTLSRLENAGNNLTEEQVDVVKLLQGLYQEAQSLSAGRHVISLNLASHAMLLGSEDELRSAFENLISNAVRYTPESGIISLNWVVENGKGLFYVQDSGIGIEPNHIPRLTERFYRVDRSRSRETGGTGLGLAIVKHVLNRHQASMEITSQPGAGSIFRIWFPSNRVLPAETAPVISSSPEHTKQNSAA | failed |
| MKLIIAIVQDKDSNRLSSQFIEANVRATKLSTTGGFLRSGNTTFMIGIDDDRVDEVLAMIKETSHAREQFMTPPVNLDVTMDGAAAYPVEVQVGGATVFVLPIEQFHQF | failed |
| MNLRAIKAILIKDLKEIRREKMVVFWIFVFPLMWVTLMGALWGGPGSPVTVDVGVVNPGGNISTLITEIMENSTINGTQLFNVKLFPNASLGIEALKHGSIKALVLFPEDFDINITSGLQGRVLVYFDKTDPQNYQIVSSIIRSFFSEVGREFRARKIEMMMQYIPTEYKEYLLATAEPIVLEEKIIHGESGRGIKFYVTSFIGIQFFFATMLMIGGSVLEEITKGTLRRIAASPTTPWDFLIGKSLSTLTTIIVSIIIGIGYARVVFGATLFPSLFGWAIIFTAAVFSMSLGLAIVMLTRSERSTPAVVNLVSMPLLFLAGIVIPESIMPEWARPIAHYFPLGRALKVLRLSDIYGRPPGELVGDFIYVLIWSVLMAMVAVASYAWAIRRID | failed |
| MSTIFDTHWPWMGIGIACVLIILLFFTNTLRSDLRVNRWYDPFWLAWFSSTAYFIHNFEEYGIDLFGRHFEFPHLMTQTMHITPEISFFTMINIPLIWIAGPILAMMSKHRPVISLIMTGLMFTNALSHIVPLISSGMYTSGLFTSIVIFIPGSLWIYYIRFIKGNLRWSILIVSLIPPIITQGLLMLSILMYRNDFLNDTTVTVFELLNGCLFIIIAFIMEKSFKRKYKN | failed |
| MSDLSQLIVAPILLPLITAAIMLLLGEKHRHIKARLNLLSTFSGLAIAACLLLWVRTQGQAASIGVYLPGNWPAPFGIVLVVDHLSALLLTLTGVIGFSALLFARARWDGAGASFHALFQIQLMGLYGAFLTADLFNLFVFFEVLLAASYGLLLHGSGRARVRAGLHYIAINLFASSLFLIGAAMLYGVTGTLNMADLALKIPLVPEADRGLLHAGAAILAMAFLVKAGIWPLNFWLVPAYASASAPVAALFAIMTKVGLYAVLRLWTLLFSGQAGASAHFGGEWLVYGGLVTLAVAAVSILAAQRLERMAALSILVSAGTLLGAVGFAQAALTGAALFYLVNSTLALCALFLLAELVERSRSANEAPLDEEEDAMPPPLESLHPPKGINLDDEQQVVIGQIIPWTMAFLGLSFIACALLIIGMPPLSGFVGKLNLISALFNPLGLGVPAEQPLSAAGWGLVALLILSGLASLIAFGRVGIQRFWKPEERPSPVLRRYECLPIVILLGLCLILSFKAEPLLRYTQDTAASLQAPDAYIKAVMAAQPIPGPTSRDVQVQP | failed |
| MSGEGNLGKDHEEENEAPLPGFRFHPTDEELLGYYLRRKVENKTIKLELIKQIDIYKYDPWDLPRVSSVGEKEWYFFCMRGRKYRNSVRPNRVTGSGFWKATGIDKPVYSNLDCVGLKKSLVYYLGSAGKGTKTDWMMHEFRLPSTTKTDSPAQQAEVWTLCRIFKRVTSQRNPTILPPNRKPVITLTDTCSKTSSLDSDHTSHRTVDSMSHEPPLPQPQNPYWNQHIVGFNQPTYTGNDNNLLMSFWNGNGGDFIGDSASWDELRSVIDGNTKP | failed |
| STITYYRTDLFKQAGLSMPERPTWTQLGEFAAKLHQPDKGVYGMCLRGKAGWGENIALLSTMANAFGARWFDEHWKPELNSPEWANAANFYVNTLKNYGPPGVSSNGFNETLALFNSGKCALWVDASVAGSFTTDKEQSKVVDSVGFAPAPVEVTDKGSSWLYAWSLAIPATSRHKDAAKAFITWATSKAYIQLVAEKDGITNVPPGTRTSTYSEA | failed |
| MMELDLPATIKRDMKFRYLLIIVPLLFPAHIFGQELPDLGDVSQASVTPHQERQIGIQIMREIRADSSYLDDPEIADYLTRLGNRLIAASGQTNPDNPFEFFAINDSSINAFALPGAFVGFHSGLITAAQNESELAGVMAHEIAHVTQKHLARMISGTSYLGLLGSIAALAIAILASRSNPNAGQAVLATAQASAIQSQLNFTRKHEKEADRVGFNMLIKAGFDPHGMSSFFERMQHASRYYENGMPSYLMTHPVTHERIADIQNRTQELGYRQVPDSLEFHLVRAKIRASRGNPASVINEFKARLQDKRYINEIAEQYGLIQALLRARQFKQADEELNTLYRTIQSDSSAQSLKNHRLGKSIQVDGDYLQSAAMIETLAARVKFASGQTDDAFRLYQSALQSFPHYRALVYGYADALLQHKDAQAALDFINGQSQFIHDDIRLYRLTAQCHAALGNALLQHQAEAEALIREGNLRAAIEQLQIALRHKHDNFYQLSSVEARLRQIKEFVAAEKEKK | failed |
| MNEKTINEQYAYIRTLLEEKRLKEALMQLESLLWQCPDWDLRTRLEQLQTSYKYMLEYMRQGANDPERWNVYRKLIADTWEIADRSRLLMLDNASSRYYHEVRRTPRPESLSAYTLKKLLHMLESFNDDLAVSGLLSDEKMDEVLKRHEETLKYMFLQTWTNSAWTPEEEEDAQSMLTSELLPVNDLCLFISAVTLSLMECFDLRKIMWLLDAYRHPDVNAGQRALVGVIFIFHIYKNRLSLYNDLVKRVDLMDEISPFKEDVARIYHQMLLCQETEKIDKKMREEIIPEMLKNVSSMRNMRFGFEENEDENDDKNPDWADAFEQSGLGDKLREMNELQLEGADVYMSTFAALKSYPFFREVQNWFYPFSKQQSDVIKQLKQEGNEKNTLLDLILQSGFFSNSDKYSLFFTIRQLPKAQQDMMLSQLGEQQVAELTEKSSAETMKKFNERPGTVSNQYLHDLYRFFKLSVRRHEFRDIFKEKLDLHHIPALSNVLYSEDILFPIADFYLKKERWNEAIEVYEEMETIGALQERGAEYYQKLGYALQKSKKYAEAIGAYLKADTLKPDNIWNNRHLAICYRLNRNYQAALSYYKKVEEATPEDTNVIFHIGSCLAELGQYEEAANYFFKLDFIESNCIKAWRGIGWCSFISRKYEQAMKYYEKIIEQKPLAIDYMNAGHVAWTMGDIQKAAALYGKSITANGNRERFLEMFRKDEEALLKQGIQEEDIPLMLDLL | failed |
| MPSYGNLGRLGGRHEYGVLVAMTSSAELDRVRWAHQLRSYRIASVLRIGVVGLMVAAMVVGTSRSEWPQQIVLIGVYAVAALWALLLAYSASRRFFALRRFRSMGRLEPFAFTAVDVLILTGFQLLSTDGIYPLLIMILLPVLVGLDVSTRRAAVVLACTLVGFAVAVLGDPVMLRAIGWPETIFRFALYAFLCATALMVVRIEERHTRSVAGLSALRAELLAQTMTASEVLQRRIAEAIHDGPLQDVLAARQELIELDAVTPGDERVGRALAGLQSASERLRQATFELHPAVLEQVGLGPAVKQLAASTAQRSGIKISTDIDYPIRSGIDPIVFGVVRELLSNVVRHSGATTASVRLGITDEKCVLDVADDGVGVTGDTMARRLGEGHIGLASHRARVDAAGGVLVFLATPRGTHVCVELPLKR | failed |
